This experiment addresses fluorogenic OmpT peptide substrate (FIG. 10). The experiment can be described thus: cell-based or functional assay.

These results are taken from patent US20070258954A1.

As for “OmpT protease of E. coli, expressed from multicopy plasmid pML19 in UT5600 cells (from UniProt P09169 21-317) (enzyme)”, the mean fluorescence intensity of cells by FACS after 10 min exposure to the substrate came out at 30 fold.
